The source of these data is patent publication US11306156.

For test [1], the target named is tissue factor (TF) antigen (UniProt P13726). Put plainly: SPR; against wild-type D3H44 Fab. On the technique in general: In SPR one partner is held on a chip, and binding of the other changes the refractive index at the surface.
The target is the same in test [2]. Briefly: SPR (ProteOn), Fab captured on anti-penta His, TF as analyte, 1:1 fit.
Test [3] shares this target. Briefly: SPR; log ratio against wild-type D3H44 Fab.
Test [4] has the same target. Put plainly: SPR (ProteOn XPR36): Fab captured via His tag on anti-penta-His, TF as analyte, 1:1 fit.

tissue factor (TF) antigen, sequence (P13726 33-251 limits assumed): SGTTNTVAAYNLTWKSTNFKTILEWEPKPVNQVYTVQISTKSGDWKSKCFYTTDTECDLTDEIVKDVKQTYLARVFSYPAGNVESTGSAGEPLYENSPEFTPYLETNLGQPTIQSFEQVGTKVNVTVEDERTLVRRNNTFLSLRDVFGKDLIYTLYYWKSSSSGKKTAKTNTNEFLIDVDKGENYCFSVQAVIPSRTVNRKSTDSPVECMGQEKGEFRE

For orientation: Kd means the concentration at which binding is half-saturated. For the substance “D3H44 Fab heterodimer, H1 A139G_F174V_V190A / L1 S131T_L135F_S176F_T178F (H1L1 of LCCA set 9051)”, in test [1], the Change in KD with respect to wild type (-(log(KD design) - log(KD wt))) turned out to be 0.06. In test [2], this substance gave a Kd of 0.14 nM.

On to “D3H44 Fab heterodimer, H1 A139G_V190A / L1 L135W_S176L (H1L1 of LCCA set 9056)”, for which the Change in KD with respect to wild type (-(log(KD design) - log(KD wt))) in test [1] was -0.02. In test [2], the Kd was 0.16 nM.

In turn, “D3H44 Fab heterodimer, H1 A139W_S188L / L1 F116A_L135V (H1L1 of LCCA sets 9063 and 9062)” yielded a Change in KD with respect to wild type (-(log(KD design) - log(KD wt))) in test [1] of -0.02. The Kd in test [2] was determined as 0.17 nM.

“D3H44 Fab heterodimer, H1 K145T_Q179E / L1 S131K (H1L1 of LCCA set 9082)”: the Change in KD with respect to wild type (-(log(KD design) - log(KD wt))) in test [1] is -0.01. In test [2], this substance returned a dissociation constant (Kd) of 0.16 nM.

The substance “D3H44 Fab heterodimer, H1 L124E_H172T / L1 V133G_N137K_S174R_S176R (H1L1 of LCCA set 9120)” displayed a Change in KD with respect to wild type (-(log(KD design) - log(KD wt))) in test [1] of 0.08. Besides, the dissociation constant Kd in test [2] was found to be 0.13 nM.

“D3H44 Fab heterodimer, H1 L124E_L143D_K145M / L1 Q124K_V133G_S176R_T178K (H1L1 of LCCA set 9178)”: in test [1], the Change in KD with respect to wild type (-(log(KD design) - log(KD wt))) was -0.15. The same substance came in with a dissociation constant Kd in test [2] of 0.22 nM.

Take “D3H44 Fab heterodimer, H1 L124E_L143D_K145T / L1 Q124K_V133G_S176R_T178K (H1L1 of LCCA sets 9216 and 9220)”: the Change in KD with respect to wild type (-(log(KD design) - log(KD wt))) in test [1] was -0.08. Moreover, the Kd in test [2] was 0.19 nM.

The substance “D3H44 Fab heterodimer, H1 L124E_L143E_K145M / L1 Q124K_V133G_S176R_T178K (H1L1 of LCCA sets 9260 and 9263)” returned a Change in KD with respect to wild type (-(log(KD design) - log(KD wt))) in test [1] of -0.19. Further, the dissociation constant (Kd) in test [2] was 0.24 nM.

As to “D3H44 Fab heterodimer, H1 L124R_D146N_Q179K / L1 Q124E_V133G_S176D_T178E_T180E (H1L1 of LCCA set 9351)”, the Change in KD with respect to wild type (-(log(KD design) - log(KD wt))) in test [1] was -0.1. The Kd in test [2] was found to be 0.2 nM.

Turning to “D3H44 Fab heterodimer, H1 L124R_S186K / L1 V133G_S176D_T178D_T180E (H1L1 of LCCA set 9473)”, the Change in KD with respect to wild type (-(log(KD design) - log(KD wt))) in test [1] was -0.07. The same substance had an equilibrium dissociation constant (Kd) in test [2] of 0.18 nM.

For “D3H44 Fab heterodimer, H1 L143E_K145T_Q179D / L1 Q124R_Q160K_T178R (H1L1 of LCCA set 9620)”, the Change in KD with respect to wild type (-(log(KD design) - log(KD wt))) in test [1] was determined as 0.39. Besides, the Kd in test [2] was determined as 0.06 nM.

In turn, “D3H44 Fab heterodimer, H1 Q179K / L1 Q124E_Q160E_T180E (H1L1 of LCCA set 9763)” showed a Change in KD with respect to wild type (-(log(KD design) - log(KD wt))) in test [1] of -0.31. In test [2], this substance displayed a dissociation constant Kd of 0.32 nM.

For the substance “D3H44 Fab heterodimer, H1 Q179K / L1 Q124E_T178E (H1L1 of LCCA set 9783)”, the Change in KD with respect to wild type (-(log(KD design) - log(KD wt))) in test [1] worked out at 0.05. In test [2], this substance had a Kd of 0.14 nM.

Substance “D3H44 Fab heterodimer, H1 Q179K / L1 Q124E_T180E (H1L1 of LCCA sets 9796 and 9789)” had a Change in KD with respect to wild type (-(log(KD design) - log(KD wt))) in test [1] of 0.16. The same substance came in with a dissociation constant (Kd) in test [2] of 0.11 nM.

Regarding “D3H44 Fab heterodimer, H1 S186K / L1 Q124E_T180E (H1L1 of LCCA set 9862)”, the Change in KD with respect to wild type (-(log(KD design) - log(KD wt))) in test [1] turned out to be 0.46. This substance also gave an equilibrium dissociation constant (Kd) in test [2] of 0.06 nM.

As for “D3H44 Fab heterodimer, H L143E_K145T / L Q124R (H1L1 of LCCA set 9587)”, the Change in KD with respect to wild type (-(log(KD design) - log(KD wt))) in test [3] is -0.25. In test [4], this substance registered a Kd of 0.28 nM.

For the substance “D3H44 Fab heterodimer, H L143E_K145T_Q179D / L Q124R_T178K (H1L1 of LCCA set 9626)”, in test [3], the Change in KD with respect to wild type (-(log(KD design) - log(KD wt))) was determined as 0.12. In addition, in test [4], the dissociation constant (Kd) came out at 0.12 nM.

Take “D3H44 Fab heterodimer, H L143E_K145T_Q179E / L Q124R_Q160K_T178R (H1L1 of LCCA set 9654)”: the Change in KD with respect to wild type (-(log(KD design) - log(KD wt))) in test [3] was 0.02. This substance gave a Kd in test [4] of 0.15 nM.

“D3H44 Fab heterodimer, H L143E_K145T_Q179E_S188L / L Q124R_T178R (H1L1 of LCCA sets 9696 and 9692)”: the Change in KD with respect to wild type (-(log(KD design) - log(KD wt))) in test [3] is -0.34. The same substance gave a dissociation constant Kd in test [4] of 0.34 nM.

On to “D3H44 Fab heterodimer, H L143R / L Q124E_V133E (H1L1 of LCCA sets 9735 and 9737)”, for which the Change in KD with respect to wild type (-(log(KD design) - log(KD wt))) in test [3] was -0.09. Also, the Kd in test [4] was 0.2 nM.

Take “D3H44 Fab heterodimer, H Q179K / L Q124E_Q160E_T180E (H1L1 of LCCA sets 9761, 9769 and 9767)”: the Change in KD with respect to wild type (-(log(KD design) - log(KD wt))) in test [3] is -0.31. Also, the dissociation constant Kd in test [4] is 0.32 nM.

Take “D3H44 Fab heterodimer, H Q179K / L Q124E_S176L_T180E (H1L1 of LCCA set 9782)”: the Change in KD with respect to wild type (-(log(KD design) - log(KD wt))) in test [3] was 0.28. The substance also showed a Kd in test [4] of 0.08 nM.

As to “D3H44 Fab heterodimer, H Q179K / L Q124E_T180E (H1L1 of LCCA sets 9797, 9794, 9789 and 9787)”, the Change in KD with respect to wild type (-(log(KD design) - log(KD wt))) in test [3] is 0.16. This substance also registered a dissociation constant (Kd) in test [4] of 0.11 nM.

For the substance “D3H44 Fab heterodimer, H Q179R / L Q124E_S176L_T180E (H1L1 of LCCA set 9808)”, the Change in KD with respect to wild type (-(log(KD design) - log(KD wt))) in test [3] was -0.02. Further, the Kd in test [4] amounted to 0.17 nM.

Regarding “D3H44 Fab heterodimer, H S186K / L Q124E_Q160E_T178E (H1L1 of LCCA set 9829)”, the Change in KD with respect to wild type (-(log(KD design) - log(KD wt))) in test [3] came to 0.41. The substance also had a Kd in test [4] of 0.06 nM.

For the substance “D3H44 Fab heterodimer, H S186K / L Q124E_Q160E_T180E (H1L1 of LCCA sets 9836 and 9841)”, in test [3], the Change in KD with respect to wild type (-(log(KD design) - log(KD wt))) was determined as 0.09. Further, the dissociation constant (Kd) in test [4] came to 0.13 nM.

Regarding “D3H44 Fab heterodimer, H S186K / L Q124E_S131T_T178Y_T180E (H1L1 of LCCA set 9846)”, the Change in KD with respect to wild type (-(log(KD design) - log(KD wt))) in test [3] was determined as 0.09. Moreover, in test [4], the Kd is 0.13 nM.

With “D3H44 Fab heterodimer, H S186K / L Q124E_S176L_T180E (H1L1 of LCCA set 9848)”, the Change in KD with respect to wild type (-(log(KD design) - log(KD wt))) in test [3] was 0.03. Also, the Kd in test [4] came out at 0.15 nM.

Regarding “D3H44 Fab heterodimer, H S186K / L Q124E_T180E (H1L1 of LCCA sets 9855, 9860 and 9863)”, the Change in KD with respect to wild type (-(log(KD design) - log(KD wt))) in test [3] stood at 0.46. This substance also registered a dissociation constant (Kd) in test [4] of 0.06 nM.

As for “D3H44 Fab heterodimer, H S186R / L Q124E_Q160E_T180E (H1L1 of LCCA sets 9876 and 9874)”, the Change in KD with respect to wild type (-(log(KD design) - log(KD wt))) in test [3] came out at 0.51. Moreover, the dissociation constant (Kd) in test [4] was 0.05 nM.

With “D3H44 Fab heterodimer, H S186R / L Q124E_S176L_T180E (H1L1 of LCCA set 9886)”, in test [3], the Change in KD with respect to wild type (-(log(KD design) - log(KD wt))) is -0.06. For the same substance, the Kd in test [4] is 0.18 nM.

With “D3H44 Fab heterodimer, H S186R / L Q124E_T180E (H1L1 of LCCA sets 9891, 9901, 9898 and 9893)”, in test [3], the Change in KD with respect to wild type (-(log(KD design) - log(KD wt))) came out at 0.36. Besides, the Kd in test [4] amounted to 0.07 nM.
